According to the DeepSol protein solubility set:

Experiment: soluble on expression in E. coli; label from the status in PepcDB or PDB records

Sequence | soluble on expression in E. coli
MNGIKTGLGITPGEHIISADSALSRNIRQCFCLSCHGRLILQTDAQGAWFEHDLYALSEQQKAACVVLNPEKSHPYIEDMEMFLSPLPVVLEWHCMMCEQFFHGKKFCEACGTGIYCRAVCTKSVYSYQPDLFQDCGGAST | soluble
MGSDKIHHHHHHMLDLKSYREKELASYDLDVELFNEFNFSVYNVMPLRKAFLISTDKGEKILKKIDYTIEEFKFVLAAVNYIKNENEFNRIIDFNKTQSGEYYCIKNGDLYCVMDMIEGKECEFSNPVDLSISSFGLGQLHSASEGFRYSKIASKNICGKMIKGFKRKKEEVNFLKKMVNLYESLNEFDEIFIKNVDYYLEQIDKSIDIMNKSQYYKLCSEEDKIVLCHHDLAHHNIIIKDEEAYFIDFDYAIIDLKVHDLSNIISKAAKVFNYSIDNSKIIISNYCKSNTLSKNEMEVLFGMLSFPEDFYEIVKSYYTKRKDWSNEEFINKMKRKMANEENRVEFLKNFKEDLKI | not soluble
MGLFFAQNMMYNHTITVYDRNYELVKVIPDEVDLSKYGHSRFKGKYRGAPVEASFSHNGKYAWISNYQMYGPGFNNPGSDKCHPSQKTDKSFLYRINTETLKIDRVIPVGSVPKFVATSTDENLILVSNWCSWDLSVVDINQNQEIKRIKLGPYPRGIVVDPASETAYVAVMGSYNIAKVNLRDFSVQWLRNIGSSPRHLNIDPAGKYLYASLNGEGKIAKISLPQGNLVKKIATGNAPRSMVLSANGQTLYVVNYGEDTVSKVRTSDMKVLQKVKVEPDPIGITYDPQTREVWVACYSGNIMIFQDLEHHHHHH | soluble
MIKPALLDKKIEKPHSWEDIPHGEWICELIQSRLDEWCPKLFGYHMLKIGGLSAELDSRFCNIKHQVNLDNKNSLRNITAELPQLPFLEKSIDACVLAHQLDYSSDPHQLLREIDRVLIGDGYVILTGFNPMSAIGLASLFPWRKNNLPWSGRMFTPHRIKDWLSVLNFEVVYSDCFALAPLTRYRTMWTWFEGLGGDAVKPISGIYFIVARKRTYPLRPIKSAWKKKPKLAPISVAQTRQGKMKSD | not soluble
SSRKSGIGHEASLKRKAEEKLESYRKKIHMKNQAEEKAAEQFRMRLKNKQDEMKLEGDLRRSQRACQQLDVQKNIQVPREAWYWLRLEEETEEDEEEKEQDEDEYKSEDLSVLEKLQILTSYLREEHLYCIWCGTAYEDKEDLSSNCPGPTSADHD | soluble
EVVVVGYGTQKKVNLTGAVSAVSAEDLASKPVMSTAQALAGLAPGLSVLQTSGRPGQGATVKIRGTGTFSKAGTDPLVLIDGLSGNIDDVDPNDIQSISFLKDAASASIYGNRAANGVILIETKKGA | not soluble
MSTTGSAPPNSKLKSVEDTDDDRTLAEDDQNDQNSGSMDHRFERIKVTLMMTQGKKFGLGIVSVHQRILVCKVENESLVAGVLKYGDQIIEINKKNVLNKIDCKKRLMQCLKDKGQVDIIIVRPKTADAVTMIEQEIQLSQQPSTTAQPKIN | not soluble
MGSDKIHHHHHHMSGTAEVNPITVDVYLDITVENISTLKDLTVKFDNYDEDLHYVKEVTDNSVKVDGIIPGIYSVTVSGTAIDTENNEYYINGNSVNAALFKHGSALNIEVQGLKVSPLIFKEIYYCGSRPEKGGVYFRDQFYEIYNNSADILYLDGIYFANLTPGTATTKLPIWPEADGNNYAYGERVWKFPGNGTEYPLAPGESCIISQFAANHQLDIYNPQSPIDGSSSEFEFNMNNPNFPDQAAYDMQHVFYQGKAEMGSIPQYLTSVFGGAYVIFRVPEGEAWDPVNDENMKTTDLSKPNSNVYYAKIPIKYVLDAVEAVNNESKMNAKRVPGVLDAGITWVGATYCGLGIARKLSTDEEGNPIIREETGTYIYQDTNNSTDDFERGVVPVMRRNGAKMPSWNHTL | not soluble
MGSDKIHHHHHHMNNSIITDDEVREFYLNCSSQTIIESLLSLHESLRLYSQNHEILLNRMFKKLDETNADSNISHIFMPVVSKDFSGIKILVNNNNKNFQGVINVIEPETGKLIGCFEAKQITAIRTALASCIGLYKQLSCSHDKLFRFENGTCYLTCFGTGLQAFWHIYIAIKLIMSGIVGESLKLVEINILYHNNMMSLDRLKSLKNLFGSNIKIELNQYQINDISSEGNGAVSNSDIIFGCLPTLEPNLFLRQLLNSKASVEQKHTYISLIGSYKPVMHECDKELIDKFKSDNESACILVDSREHTLLESGELIDSNIAPHNLIEIGELDTLKNTVLNLNEKGCKRTITLCKIVGLAVMDVALAKEFLSLRTKNTENKE | not soluble
MGHHHHHHSHMKNSEESSSSSEDTNNATDTNTSESQDISVNGPEKVGDVYEIDGGTAKVMAISNKETTVKTGPIQFTVKKVIAAVANEQLPFIDVQIESENTSDEVVRFRPSLAQLATSTGVQIDEPSLLESDRLLDEYVGKVNDSGSIIYVFDNEEDIKDLESIRLRISSPFNEDLKNLGDKLDLKINLEH | soluble
MSLCRFVAYLGRPTLLENVLVRPKNSIIMQSLHARETKYRTNGDGFGLGWYSPEVSSDPALFTSVYPAWNDRNLLHLTAKIQSPCFFAHVRSASAGGVTNYNCHPFIYGDWMLMHNGEINDFIDVKRHIRHLLDDDIYHWVKGQTDSEHLFGLFLQLAKGRDITQLSVAADVLQETINKILEVIGQFGHSGPSYFNICLTNGKKIIATRYCSHEKKKPLTLHYLIGYVLSTQGLWIKEEGNPAYVVVSSERLNDLDEGWEDVPPQHMILIDENKNIQLRPLQTLGEGHHHHHH | soluble
MGSDKIHHHHHHMGDSMSLDWDKLRIFHAAAEAGSFTHAADKLHLSQSAISRQVSSLEQDVGIKLFHRHARGLILTEQGEMLYRTAHDVLMKLESVKAQLSETTDKPSGKLRITTTVGLGQGWLTDKIQEFMSLYPEIQVQLILDNEELDVNMRHADCAIRLRQPQQSDLIQRKLFTVHMHVYAAPSYINKYGEPQSLDDLDNHRIITFGEPAPNYLLDVNWLEIAGRDSDNPRISHLQINSQTSIKRACLLGIGIAMLPDYIVGRDPGLIQLPISADIPSFDTYFCYPDELKNAAKLKVFRDYIVAKARNWNF | not soluble
MKKIIGLVGTNSEQSTNRQLLQFMQHYFAQEADIELVEIVDFPMFNKPEDKVLPEIVKTVAEKIEAADGVIISTPEYDHAVPASLMNALSWLSYGIFPFVDKPVMITGASYGTLGSSRAQAHLRQILDAPELKARIMPSSEFLLAHSLQAFDENNALKDSEQIDKLAGLFADFCVFIEITEQLKHAHAQNKKEAENFSWETI | not soluble
MKLTGQAIDGFLRKPDPKIRCVLVYGPDEGLVRERLEQLARTVVADPKDPFRITDLSGDDLRADPARLADEAAALAFGGGRRLVRLRQMTDQHAPRLKAFVEAPVGEALVLVQGGDLTARSALRKLFEGASAAAALPCYADEGRSLETLVRATLAEARLAAAPEVIDYLVANLGGDRGVSRSELAKLVTYCGKATSVSLDDALACVGDSAQIGLDMLTNAVAEGDSATALRALDRLGQEGMATVALLRGLTRHFTRLHLVAGLIAGGTSVDQALAALKPPVMFKLAPRFRSQVQRWSAERLAQALDLLLDAEIDAKSSGLPERALVERLLLRLARGAKTASRLEHHHHHH | not soluble
NDNSPRFEKSVYEADLAENSAPGTPILQLRAADLDVGVNGQIEYVFGAATESVRRLLRLDETSGWLSVLHRIDREEVNQLRFTVMARDRGQPPKTDKATVVLNIKDENDNVP | soluble
MQLGISKEQAGTVIGGLAGVAIGSTMGSGNGKIAAALIAGGIGAYVGNRIGHMLDEKDQQALALRTQEVLSQQQTTASAQPVTWKSDHSGATAQIVPGKEYTKTKQVEVKRAPKIQAVPSMKLINEPYVTISDNLNVRAAPNQAGEKVGSLKNHTEFTAVGSTGDWILVGRKGVTVGYVHKNYVEPKAQAVAKRVTPAVNLDELDVAASKETQGFDLDSVQSLPTQTVAAEAACRPVTVSLKSLEHHHHHH | soluble
MGSDKIHHHHHHCSEKTTTEIPETELKNISCSTQLVTHSSAQTRGAAPTTLNENDFVLYAFKKNGEGNFSYEEAKHETSVIDGGVWKYNAAFPVGTYKFIAFYNLDEKNQAALNTTITGISNQTWENILKSIVITHFPSATGQYHEDMNEIFCGKTTDEIDISSGIGGDDNEIKIKLTLERIVSRIDIKFIKVASDDDHIEVPYATGNIFGGTGTTSLTSLIFTSSNVPLKYNLNGENPDYVTGVQCQVTYAAPSFQYGEANADAVKALDYQPFPQNADAINNNMETNIKKGIAKGGAYFMGSYLLPFPSSSQTLNANIQLNKANQERTIKVPGFAVTSNYVSIITVRLKSSTDAGDNNNGNDDEHLFNPKSTFIVEIEKTYVGIHNTNVDVE | not soluble
MSQAFAQPLSGYQIGDEIKNFSMLNVTNQTVLSLTDYNDQKVVVIIFTNNNCAYAKLYEQRIANLAKQYNTSGVAFLLVNPSVSNSDKFETIEAMRKKIQNDKSLYPYLADTTQSLAISFGVQRLPDAFVLKKMETSFRLVYKGSIDDNPQSAEDVSNRFLSDAISAMVLNRSIKVADTRAVGCLLKPY | not soluble
MAVAFYIPDQATLLREAEQKEQQILRLRESQWRFLATVVLETLRQYTSCHPKTGRKSGKYRKPSQ | not soluble
SATKELDLLADTAIAETEKPLDLGLDDSKTHAFLFTATWCDWYFKDSRPTASQQCISAQNSVNNLTKKFDKFAWQGIISRLWTGPSELANYTKKYQVKHPIAIDVSNSMFHQYGIKEFPSLVVVKNGEVILKTSDFSKPESLAKQLSKL | not soluble
MTYAESTRSAVVYSSIVPPPRTPVGPPMLKDGVRKGSASQPLQPKNGANSLDYWSKSEDEKSGITCYYSRHNIQFPPPQRKMKPVKPNPVGRSTINGFTPSTSSPQNGLRYPPFPQNTPESVMSPPVGIYRNIPAMPRAKLTKDEKNGGKMNRDGGGENPKNVVWGGTSRKDDDTASTPLNSFSANASIEKKRSTARRKPRWARCFQTLFCCVTPPREIEKIQSSQRTNSTNNNHQNGRPSTPTNTGPPIQLITQVHRDGTVTGLPTTGQACQQNGSGDGVTPYDKIANDSVGTINEKPLLPPLLPQDSNKKCLVIDLDETLVHSSFKPVKNPDFVIPVEIDGVEHQVYVLKRPYVDEFLAKVGEHFECILFTASLAKYADPVADLLDKKRVFRGRLFREACVFHKGNYVKDLSRLGRNLNQTLIIDNSPASYAFHPENAVPVTTWFDDPSDTELLDILPSLEHLNGFSSIYDLYRPEEGPQSELLNHCSC | not soluble
SSPSLLEPLLAMGFPVHTALKALAATGRKTAEEALAWLHDHCNDPSLDDPI | soluble
EGVAVMLFYSVGELFQDKAIDKAKRNISALLDVRPEKAVVVRSNEIVTVDPRSVLINEIIEIKAGERVPLDGVMLDEVAAFNTAALTGESVPRDISRGEEVLAGMIVTDKVIRMKVTKPFDKSALARILELVE | not soluble
MAHHHHHHMEFLVADAERMYTVNGRLQHLSYWSYKILARSFLESYQNPPLLNSNRAAQNFSKGSGYVDFCTWHRYSEFEWLAAQVELEFPGMLFPPIPSKETDGTVDKFTELLTSVKENNSTTRENPLVKKRMRHLQLTFNAIAQLHELHESPLLKAFVTLDELSWCAFREEREKKMKTSILTIFKAKGLSIIAKLRSFRESSNHDYTLDSPLDSVATRQSDLGELLNTCFAQVEYINKYCISEWRHWSDVNKLRGSIQGSPMPWTACYGGHHVQHSKHPGLEGVVREINNDAAVVEWNGQGGKLSKVPLDELNYPSSGISDPAIFALQELASQVESYFMYLSRSSGVAVLRDVEDLLWFLSSYANRCVRVIRRFREMRSEVRYLTRVVEKKASVEQFEQLERLKQILSKGTSRFMEQYNNFYRCFMRNSLMEVAHKFGRVITVIMSDDQWNERLSVAKTMLTLSLPLLPEEREEIFAEDASKRDSPPMKQVNGLEG | soluble
